B1: His-GIV-CT (aa 1660-1870), wild-type, not phosphorylated (mock- or sham-treated) (other)
chain: SETLESRHHKIKTGSPGSEVVTLQQFLEESNKLTSVQIKSSSQENLLDEVMKSLSVSSDFLGKDKPVSCGLARSVSGKTPGDFYDRRTTKPEFLRPGPRKTEDTYFISSAGKPTPGTQGKIKLVKESSLSRQSKDSNPYATLPRASSVISTAEGTTRRTSIHDFLTKDSRLPISVDSPPAAADSNTTAASNVDKVQESRNSKSRSREQQSS
notes: Expressed in E. coli; also called mock-WT; mock-treated GIV-CT; not shown: hexahistidine (6xHis) tag of pET28b
B2: His-GIV-CT (aa 1660-1870), wild-type, phosphorylated in vitro by recombinant EGFR kinase (other)
chain: B1 chain
modifications: phosphotyrosine at Y1764 and Y1798 (sites found by mass spectrometry after EGFR kinase; EGFR prefers Y1764)
notes: also called pY GIV-CT; pY GIV-CT (EGFR); not shown: hexahistidine (6xHis) tag of pET28b
B3: endogenous Gαi3 of HEK cells (other, UniProt P08754 2-354, looked up)
chain: GCTLSAEDKAAVERSKMIDRNLREDGEKAAKEVKLLLLGAGESGKSTIVKQMKIIHEDGYSEDECKQYKVVVYSNTIQSIIAIIRAMGRLKIDFGEAARADDARQLFVLAGSAEEGVMTPELAGVIKRLWRDGGVQACFSRSREYQLNDSASYYLNDLDRISQSNYIPTQQDVLRTRVKTTGIVETHFTFKDLYFKMFDVGGQRSERKKWIHCFEGVTAIIFCVALSDYDLVLAEDEEMNRMHESMKLFDSICNNKWFTETSIILFLNKKDLFEEKIKRSPLTICYPEYTGSNTYEEAAAYIQCQFEDLNRRKDTKEIYTHFTCATDTKNVQFVFDAVTDVIIKNNLKECGLY

Key:
His-Gαi3 = assay: cell-based or functional assay
GST (alone) [1] = biological target: T1, GST (alone) (UniProt P08515 1-218 = GST); assay: GST pulldown, GIV-CT pAb blot (FIG. 20B)
T1 construct: Negative control on glutathione beads
T1 sequence (P08515 whole entry): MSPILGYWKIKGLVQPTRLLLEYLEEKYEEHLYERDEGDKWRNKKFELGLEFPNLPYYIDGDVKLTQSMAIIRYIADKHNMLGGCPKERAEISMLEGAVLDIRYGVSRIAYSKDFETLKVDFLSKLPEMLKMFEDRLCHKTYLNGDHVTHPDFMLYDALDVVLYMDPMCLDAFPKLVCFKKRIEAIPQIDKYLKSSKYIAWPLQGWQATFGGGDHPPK
Experimental: Equal aliquots (˜3 μg) of His-GIV-CT were incubated with ˜30 ug of GST and ˜25 μg GST-SHP-1 immobilized on glutathione beads. Bound His-GIV-CT was analyzed by immunoblotting (IB) with GIV-CT pAb. Relative amounts of bead-bound GST and GST-SHP-1 were confirmed by ponceau S staining. (B) His-GIV-CT preferentially binds the C-terminal SH2 domain of SHP-1. Equal aliquots (˜3 μg) of His-GIV-CT were incubated with ˜30 μg GST, wild-type GST-SHP-1, GST-SHP-1 lacking both SH2 domains (ΔN+CSH2), and GST-SHP-1 lacking only the N-terminal SH2 domain (ΔNSH2). Bound His-GIV-CT was analyzed by immunoblotting (IB) with GIV-CT pAb. His-GIV-CT specifically bound wild-type GST-SHP-1, but not GST alone (lanes 3, 4); binding was reduced in the absence of both SH2 domains (lane 5), but restored when the C-terminal SH2 domain was present (lane 6).
To determine if the GIV-SHP-1 interaction observed in vivo is direct, in vitro binding assays were carried out using recombinant His-GIV-CT and GST or GST-SHP-1 immobilized on glutathione beads. […] Because SHP-1 is recruited to its substrates by one or both of its in-tandem SH2 domains (30), whether the SH2 domains, and if so, which one (NSH2 or CSH2) is responsible for mediating the direct interaction of SHP-1 with GIV's C-terminus was assessed. […]

GST (alone) [2] = biological target: T1, GST (alone); assay: GST pulldown with a panel of GST-tagged SH2 adaptors (FIG. 4A)
Experimental: FIG. 4 illustrates that GIV interacts with p85α via its phosphorylated C-terminus. […] Mock-treated GIV-CT and in vitro EGFR-phosphorylated pY GIV-CT were incubated with ˜35 μg of the indicated GST-SH2 adaptors or GST immobilized on glutathione beads. Bound His-GIV-CT was analyzed by immunoblotting (IB) with anti-His mAb. pY GIV-CT, but not GIV-CT specifically bound the C-terminal SH2 domain of p85α (lane 3), and weakly to the N-terminal SH2 domain of p85α (lane 2). […] Mock-treated GIV-CT and in vitro EGFR or Src-phosphorylated (pY GIV-CT) His-GIV-CT were incubated with ˜35 μg of GST-p85α-CSH2 adaptor or GST immobilized on glutathione beads. Bound His-GIV CT was analyzed by immunoblotting (IB) with anti-His mAb. GIV CT bound p85α-CSH2 exclusively after phosphorylation by EGFR and Src-kinases (lanes 3, 4), but not when sham-treated (lane 2). […] HeLa cells were starved (0 min), and subsequently stimulated with EGF for indicated time periods prior to lysis. Equal aliquots of lysates (bottom) were incubated with anti-GIV (CT Ab; lanes 1-3) or a mix (M) of them was incubated with pre-immune IgG Immune complexes (top) were analyzed for the presence of endogenous GIV, phosphotyrosine (pTyr) and p85α by immunoblotting (IB). […] Equal aliquots of lysates (bottom) were treated with anti-GIVCT Ab or preimmune IgG Immunoprecipitated complexes (top) were analyzed for GIV and p85α by immunoblotting (IB). […]

[3] = biological target: endogenous SHP-1 of HEK cells (UniProt P29350 1-595); assay: anti-SHP-1 co-immunoprecipitation from HEK lysates (FIG. 26)
Chain of endogenous SHP-1 of HEK cells (P29350 whole entry): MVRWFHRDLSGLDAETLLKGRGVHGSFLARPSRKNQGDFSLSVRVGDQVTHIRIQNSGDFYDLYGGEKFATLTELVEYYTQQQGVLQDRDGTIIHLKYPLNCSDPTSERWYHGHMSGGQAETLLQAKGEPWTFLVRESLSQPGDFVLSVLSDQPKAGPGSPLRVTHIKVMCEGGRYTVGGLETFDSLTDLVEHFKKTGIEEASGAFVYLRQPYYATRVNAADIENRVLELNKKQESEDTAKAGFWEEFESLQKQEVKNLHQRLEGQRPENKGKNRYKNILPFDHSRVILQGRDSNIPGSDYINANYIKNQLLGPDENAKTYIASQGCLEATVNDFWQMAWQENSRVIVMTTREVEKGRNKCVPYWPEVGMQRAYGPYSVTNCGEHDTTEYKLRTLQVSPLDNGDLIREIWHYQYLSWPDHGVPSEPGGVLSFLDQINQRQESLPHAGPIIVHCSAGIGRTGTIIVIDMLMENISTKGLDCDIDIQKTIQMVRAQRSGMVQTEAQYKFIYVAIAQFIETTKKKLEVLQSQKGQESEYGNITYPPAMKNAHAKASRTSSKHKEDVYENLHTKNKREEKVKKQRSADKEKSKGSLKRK
Experimental: Equal aliquots of HEK lysates (bottom) were incubated with either rabbit preimmune (lane 1) or anti-SHP-1 (lane 2) IgGs, and protein A agarose beads. Lysates and immune complexes (top) were analyzed for GIV, SHP-1, and Gαi3 by immunoblotting (IB). SHP-1 was immunoprecipitated efficiently and specifically by anti-SHP-1 (lane 2), but not control (lane 1) IgG. GIV, but not Gαi3 was detected in SHP-1-bound protein complexes (lane 2).

Binder | steady-state GTPase activity of His-Gαi3 (His-Gαi3) | binding result (GST (alone) [1]) | binding result (GST (alone) [2]) | binding result [3]
B1 | ~1.7 fold over the basal activity | no binding (tested: ˜3 µg His-GIV-CT, ˜30 µg GST) | – | –
B2 | ~1.7 fold over the basal activity | – | no binding | –
B3 | – | – | – | no binding

Reference: patent US20140234872A1 (University of California, published 2014)
